This passage reports Ka results from patent publication US20170152299A1 (GUANGZHOU SHENGLU BIOTECH, published 2017).

The target of this assay is T1, FGF7 (UniProt P21781 32-194).
T1 construct: Bought reagent; also called KGF
T1 sequence (looked up): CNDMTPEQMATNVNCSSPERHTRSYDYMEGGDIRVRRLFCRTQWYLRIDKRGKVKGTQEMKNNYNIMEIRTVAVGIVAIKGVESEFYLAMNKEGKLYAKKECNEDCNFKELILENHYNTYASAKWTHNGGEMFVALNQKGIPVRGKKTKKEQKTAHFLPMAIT
The experiment in a line: isothermal titration calorimetry; FGF7 titrated into the truncated FGFR2b extracellular fragment in the sample cell (Example 8). As to the method:
The three types of the FGFR2b extracellular fragments and FGF7 (purchased from Millipore) were dialysed respectively with iTC buffer (0.15 mol/L NaCl and 5% glycerol in 20 mmol/L Na₂HPO₄-citrate buffer, pH 7.2). The proteins after the dialysis was centrifuged at 4° C. and 18000 rpm for 30 min before the iTC experiment.
400 ul 35 μmol/L of each of the three types of the FGFR2b extracellular fragments was added to the sample pool, respectively, and titrated with 200 μl 93 μmol/LFGF7 at 2 μl per time at a 2.5 min interval for a total of 20 drops.
A general note: Isothermal titration calorimetry measures the heat released or taken up as one component is titrated into another.

B1: truncated protein of the wild-type FGFR2b extracellular fragment (SEQ ID NO: 8) (receptor)
chain: KRAPYWTNTEKMEKRLHAVPAANTVKFRCPAGGNPMPTMRWLKNGKEFKQEHRIGGYKVRNQHWSLIMESVVPSDKGNYTCVVENEYGSINHTYHLDVVERSPHRPILQAGLPANASTVVGGDVEFVCKVYSDAQPHIQWIKHVEKNGSKYGPDGLPYLKVLKHSGINSSNAEVLALFNVTEADAGEYICKVSNYIGQANQSAWLTVLPKQQAPGR
notes: also called truncated FGFR2b extracellular fragment, wild type
Regarding B1, the Ka was found to be 8.74e+06 M⁻¹.

B2: truncated protein of P253R mutant-type FGFR2b extracellular fragment (SEQ ID NO: 12) (receptor)
chain: KRAPYWTNTEKMEKRLHAVPAANTVKFRCPAGGNPMPTMRWLKNGKEFKQEHRIGGYKVRNQHWSLIMESVVPSDKGNYTCVVENEYGSINHTYHLDVVERSRHRPILQAGLPANASTVVGGDVEFVCKVYSDAQPHIQWIKHVEKNGSKYGPDGLPYLKVLKHSGINSSNAEVLALFNVTEADAGEYICKVSNYIGQANQSAWLTVLPKQQAPGR
notes: also called truncated FGFR2b extracellular fragment, P253R mutant type
Regarding B2, the Ka came to 3.94e+07 M⁻¹.

B3: truncated protein of S252W mutant-type FGFR2b extracellular fragment (SEQ ID NO: 10) (receptor)
chain: KRAPYWTNTEKMEKRLHAVPAANTVKFRCPAGGNPMPTMRWLKNGKEFKQEHRIGGYKVRNQHWSLIMESVVPSDKGNYTCVVENEYGSINHTYHLDVVERWPHRPILQAGLPANASTVVGGDVEFVCKVYSDAQPHIQWIKHVEKNGSKYGPDGLPYLKVLKHSGINSSNAEVLALFNVTEADAGEYICKVSNYIGQANQSAWLTVLPKQQAPGR
notes: also called truncated FGFR2b extracellular fragment, S252W mutant type
B3 yielded a Ka of 1.26e+08 M⁻¹.
